Tests used:
[1] = target: recombinant rhesus CD40 (ECD)-hFc (rhesus monkey); assay: ELISA, rhCD40(ECD)-hFc coated
[2] = target: rhesus CD40 expressed on HEK293A cells (rhesus monkey); assay: FACS, HEK293A/rhesusCD40 cells
[3] = target: human CD40 expressed on cells (human) (UniProt P25942); assay: cell-based or functional assay
[4] = target: recombinant human CD40 (ECD)-his (human) (UniProt P25942); assay: SPR (Biacore 8K), hCD40(ECD)-his coupled to chip, antibody injected
[5] = target: recombinant human CD40 (ECD)-his (human) (UniProt P25942); assay: ELISA, hCD40(ECD)-his coated
[6] = target: human CD40 expressed on cells (human) (UniProt P25942); assay: FACS, HEK293A/humanCD40 cells

Sequence of RO7009789 (antibody) (VH): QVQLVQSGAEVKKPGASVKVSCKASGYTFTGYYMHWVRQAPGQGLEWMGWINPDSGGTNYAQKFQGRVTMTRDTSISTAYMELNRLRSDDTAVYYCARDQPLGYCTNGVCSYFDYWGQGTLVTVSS
Sequence of RO7009789 (antibody) (VL): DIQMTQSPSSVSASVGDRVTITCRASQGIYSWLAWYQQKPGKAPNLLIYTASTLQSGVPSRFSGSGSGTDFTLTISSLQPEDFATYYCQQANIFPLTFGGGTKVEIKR
Sequence of recombinant human CD40 (ECD)-his (human) (P25942 21-193): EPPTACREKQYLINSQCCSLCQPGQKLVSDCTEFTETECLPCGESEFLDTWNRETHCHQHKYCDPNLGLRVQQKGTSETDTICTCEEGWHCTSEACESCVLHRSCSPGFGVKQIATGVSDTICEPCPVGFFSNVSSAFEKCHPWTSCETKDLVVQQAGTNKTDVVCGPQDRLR
Sequence of human CD40 expressed on cells (human) (P25942 21-277 limits assumed): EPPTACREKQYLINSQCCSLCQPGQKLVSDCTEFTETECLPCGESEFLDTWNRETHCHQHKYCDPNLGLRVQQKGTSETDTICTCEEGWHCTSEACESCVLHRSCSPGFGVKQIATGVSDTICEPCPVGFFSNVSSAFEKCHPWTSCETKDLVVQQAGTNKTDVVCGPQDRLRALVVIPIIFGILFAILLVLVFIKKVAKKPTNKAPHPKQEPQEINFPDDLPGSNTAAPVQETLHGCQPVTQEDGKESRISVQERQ
Sequence of recombinant rhesus CD40 (ECD)-hFc (rhesus monkey) (P25942 other isoform, or with tags, fused parts or gaps): as the sequence (P25942 21-193) above, with G43S, H56R, W89L, T92M, A95S, L101P, S106L, H142R, L172Q counted along it
Sequence of rhesus CD40 expressed on HEK293A cells (rhesus monkey) (P25942 other isoform, or with tags, fused parts or gaps limits assumed): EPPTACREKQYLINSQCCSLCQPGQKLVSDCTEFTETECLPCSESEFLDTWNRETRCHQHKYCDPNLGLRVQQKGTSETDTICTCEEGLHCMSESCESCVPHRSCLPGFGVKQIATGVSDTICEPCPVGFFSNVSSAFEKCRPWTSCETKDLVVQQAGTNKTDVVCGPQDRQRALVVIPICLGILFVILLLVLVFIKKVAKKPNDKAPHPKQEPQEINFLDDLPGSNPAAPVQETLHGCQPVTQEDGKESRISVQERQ

EC50 [1]: 0.0162 µg/mL
EC50 [2]: 0.185 µg/mL
HEK Blue EC50 [3]: 0.0233 µg/mL
Kd [4]: 1.71 nM
EC50 [5]: 0.0207 µg/mL
EC50 [6]: 0.227 µg/mL
Substance: RO7009789 (antibody)

From US10654939
